According to publication PMC2935870:

Biological target: pGBKT7-53
Experiment: two-hybrid

**Q.** For pGADT7-T (domain or fragment), which α-galactosidase activity is on record?
**A.** 22
